Test results published in the RNAGym collection of RNA variant scans (doi:10.1073/pnas.2313332121).

B1: TPR t1 (parent)
chain: GACCAAUCUGCCCUCAGAGCUCGAGAACAUCUUCGGAUGCAGAGGAGGCAGGCUUCGGUGGCGCGAUAGCGCCAACGUCCUCAACCUCCAAUGCAUCCCACCACAUGAUGAUGCCUGAAGAGCCUUGGUUUUUUG

Variants of: B1
Test: polymerase ribozyme fitness, log enrichment relative to wild type (log ratio); higher = more active; in vitro selection for triplet polymerase activity
How it was run: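 Fitness compares each genotype's enrichment to that of the wild type on a logarithmic scale, averaging replicates with inverse-variance weights. The logarithm is base 2. Enrichment came from Illumina sequencing of input and output libraries after one triplicate round of in vitro selection, which included frozen incubation at −7 °C, of PCR-built, transcribed mutant libraries of each subunit of a heterodimeric triplet polymerase ribozyme. Only genotypes with ≥10 input reads and ≥1 read per output were kept.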

Variant	polymerase ribozyme fitness (log ratio)
C13U C22G A26C A37U A41G A50G C115U	-3.21
C15A C20U	-3.39
C13U G60U	-0.0139
C13U G60A	0.0451
U14A U33G C34A G47C C70U U112A G127A	-6.98
C15G U59G C123G U129G	-1.59
C15A A43U C76G	-3.73
C15G C88G G120C	-1.47
C15U A18C	-3.52
C13U A27U C72A U130A	-2.6
U14C U54G C62U	-1.69
C13U U30C C80A C89U C124G	-5.32
C13U G39C G63U U125G U133A	-2.15
U14A C20G C40U G45A G63C U96G U112A G117A	-6.83
C15A C62A C76U U96G C115U	-6.47
C15U A46G G51A C56G U59C G71C U78G U92G C123U	-6.11
C13U A27U G42U C64G A100C G120C C123G	-7.95
C15A G51A A74U C79G A111C A118U	-6.36
C13U G69A C88U	-2.75
C13U A43C G71A C82A C98G C102A A105U G117C	-6.77
U14G A95G	-2.23
U14G A95U	-2.44
U14A G19A G42U A43C C70A	-6.34
C13U U129A	-0.61

Variant	polymerase ribozyme fitness (log ratio)
U14G U78A G117A G120A	-2.29
C13U C28A G110C G120A	-1.9
C15G G42C G60U C94U A118U	-3.25
U14G G44C C80U	-3.74
U14C G44A A46U A75G A95U	-3.28
C15G A37U C56U C123A	-1.93
C15U A83G	-1.88
C13U A121G	2.04
C13U A121U	2.03
C13U G120C	1.89
C13U G120A	1.58
C15U C28G G39U C124A U129G	-5.23
C13U A37C C53G G128C	-1.48
C15A U33C A83U C101G G117C	-7.47
C13U G44A C79G G93U	-4.32
U14G A111C G127A	-3.8
C15U C28U A68G G110A	-2.39
C15G A95U C98U	-5.14
U14A C72U C89A	-3.16
C15G G47U	-3.95
C13U C53G C56A	-0.438
C15A C53G C102U	-4.5
C15A G120U	-1.44
C15A G120C	-0.2

Variant	polymerase ribozyme fitness (log ratio)
C13U G71U A111G U126G	-0.972
C13U G44A C49U C86G C102U U106G U112G A121C U131A U133A	-6.07
U14A G61C	-3.93
C15A G23U C72G C98A C114G U116A	-7.66
U14C A16U C88U C101A U129G	-5.73
C13U C28G C34G C49A C76A A100C U109A C123G	-6.13
C15G C88G	-3.07
C13U C56U A90G	0.402
C13U C34G G47U C72G U112A	-5.6
C13U U59A G60A C80U A95C G120U	-1.94
C13U A43G G60A	-1.39
C15G C97U C124U	-1.59
C13U C15U U54G U81A U96A	-3.41
C15U A27C C85A G117C C124G G128A U129G	-6.66
C15G C49G G61A C85A G110A	-3.95
C13U C88A	-0.243
U14C G51U C104U	-4.54
C15G C79U	-1.96
C15G G48A C85G	-3.62
C15G G107A	-5.32
U14A G61A G117A	-4.06
C13U C102U G117U	-3.38
C13U C15G C88A U96C	-2.33
C15A C56U U59C C64U A84U C98G G110A	-7.69

Variant	polymerase ribozyme fitness (log ratio)
C15G U96G G120A	-1.53
C15A G39C G117A	-1.64
C15G G47U U55C U78C C82U C86A G120U	-2.18
U14C G48U C72G	-2.66
C15U A24G A41G C73A C115U	-2.38
C13U G47U	-1.97
C13U C72U C94G	-1.35
U14A G48U U59G	-2.71
C13U C20G G45A U96A	-4.96
C15A G57A U78A G110U C124G	-3.91
U14A C49G	-2.67
C13U G60A C82A U131G	-0.416
U14G G58A A95U G117C	-5.13
C13U U32G U87C	-7.09
U14A U106A	-1.9
U14G U21C G42U	-3.13
C13U A41G A46G C53A U78C	-0.474
U14G A37U C70U A74U U133G	-3.41
C15A C49U C72A U132A	-1.5
C15A C85G C94A	-3.92
C13U A50C	-0.095
C13U C72U	-0.334
C13U G45C C73U C123A	0.429
C13U U112A C123A G128C	-1.12

Variant	polymerase ribozyme fitness (log ratio)
C15U A37C G61C	-3.39
U14A A84C G122A	-1.57
U14G C101G	-3.2
C13U C56G C62U A74G U96A A100C	-4.8
C13U G48U C73U U130G	-0.119
C15A G60U	-2.01
C13U A27U G36A G61A C79A	-5.13
C13U A108U	-4.78
C15A C40A C102U C114G	-6.22
C13U C49U G57A C82G U106A	-0.895
C15A C53U G63C	-2.5
C15G G60A G117U	-0.472
U14C A50U U96C C115U A121U	-5.13
C13U G39U U59A G128U	-1.64
C15A C70U G93C C124G G128C	-4.17
C13U C28G A43G C62U G110C	-1.17
U14G C56A G120C	-0.0635
U14G G45A A121U	0.629
C15A G61A A83U G117C	-5.31
C15G G113C	-6.27
C15G A37G C62U C76U A118U C124U	-2.37
U14C G44U	-3.05
C15A G71U C104A	-4.07
C15G C70G A90G C114G	-6.41

Variant	polymerase ribozyme fitness (log ratio)
C15A A16U C88A	-3.46
C13U A29C G52U C104U G120A U131A	-2.05
U14A C70G	-3.97
U14C C62U	-1.6
C15A U21A U78A G93U	-2.36
C13U A46G G47U C82A	-1.52
C13U C56U	0.718
C15G C70G C86A G120A	-4.5
C15U A100U G117U	-2.41
C13U G117U	-2.13
C13U U126A	-1.64
C15U A37C C76G	-2.14
U14A G39A U55A U78C G117C	-7.2
C13U G39U C73A A83U A121U	1.24
C13U C70A C72U	-1.42
C15G A37C C73G G120C G128U	-4.14
U14C C15U C73G	-3.76
U14A G63C G113A	-4.74
C13U C28G A43G G110C	-0.443
C15G U112C	-1.42
C13U U55G C72U	-0.221
C15A G47U	-4.02
C13U G51U G61A C88U U106A	-2.6
C15A G47U G127C	-5.43

Variant	polymerase ribozyme fitness (log ratio)
U14C G63C U112G G113U	-5.75
C13U C73U C124U G127A	0.275
U14A C34G G71C A91G C124A	-6.51
C13U C40U C124U G135C	0.605
U14A A37U G52A U59C	-3.31
U14G C49G	-2.23
C13U G17A A43C U59C U132C	-4.55
U14G A43U G63C G71U C88G	-7.34
C15A A24U C72G C76U C123G	-6.56
U14A A24G G61C C89G A91C C101A U112A G122U U125A	-6.22
C15A C94U	-1.87
C15A G48C C123G	-1.77
C13U G61C G93U U132C	-2.93
C13U A46U G110A A111C A119C	-5.5
U14C C22U U32C	-5.53
C15A A41C	-3.59
C13U C86U	-0.506
C15G C49U U78A U125G	-3.37
C13U U14C G69U C70U A90G	-2.94
C15A C76U C79A C104A C123A	-4.6
U14A A29G U55C C72U C86U	-4.41
C15A G42A G71U G117C	-5.93
C15A A29G	-2.66
